# Tested on: TfiI-s (N-terminally shortened TfiI) lacks first 12 amino acids; translation presumed to start at TTG codon (Thermus filiformis)
# Experiment: cleavage_in_vitro
# Conditions: cell lysate; lambda DNA substrate
substance,measurement,value
lambda DNA,activity (units/g wet cells),100000

# — patent publication US6133008
